Test: label from the status in PepcDB records

Sequence	protein production
MSTDSPLRTTASTCCYCGVGCGVLIEHDGERILGVQGDPRHPANFGRLCSKGASLHLTGDLQARALYPQLRLGKQLARARSDWESALEHAAGRFAETIREHGPDSVAFYISGQLLTEDYYAFNKLARALVGTNNIDSNSRLCMSSAVVGYKRSLGADAPPCSYEDLDCADCVLIAGSNMAFAHPVLFRRLEAAKAARPEMRIVVIDPRRTDTCELADLHLALLPGTDVALFHGILHILLWEDWIDRSFIAEHTEGFADLKELVRDYTPAAVADICGIDRADLQRCAEWIGRSPRFLSLWCMGLNQSSAGSAKNSALINLHLATGKIGRAGCGPFSLTGQPNAMGGRETGSLANLLPGHREAADPGHRAEVAHYWGVEQLPTSPGLSAIELFDAVHDGRIKALWIACTNPAQSLPDQRKIHEALARCPFVVVQEAFAGTETCQYADLLLPAASWGEKEGSVTNSERRISHVRRAVPPPGEARQDWNIVCDFARRLEGHLRPAKPGLFAFADSRSLFDEYKLLTAGRDLDLSGLSYALLDRLGPQQWPFPTGAEQGTARLYADGRFPTASGRAQLVAEPYRAAQEKRDARYPLTLNTGRLRDQWHGMSRTGTCARLFGHEEEALVHLHPEELRRRQLLDGQLVRLKSRRGALVLPVSADDSVRPGQAFLPMHWGDRFLKGLGCNVLTLPAFDPLSKQPELKHAGVQVESVELPWRLFALVETDIQARFEALRALCEVFDHASFSLAGRERPALLVSAAHHEAPGADLLERIDRQLELLDGPILAYDDPRRAIGKRVRLEDGRIVAVRLAGETLARDWLKELWLTGRADSELRRWLLAPLGAAPGRPSQGAGGKTLCSCQNVSQQTVLGGIARGLDLDGLKREFGCGTGCGSCVPEIKRLLAAP	failed
MSTDVSSAENEGGATVRTARVPKYYRLKKHLLDMTRTQTPGTPVPPERTLAAEFDTSRTTVRQALQELVVEGRLERIQGKGTFVAKPKVSQALQLTSYTEDMRAQGLEPTSQLLDIGYITADDRLAGLLDITAGGRVLRIERLRMANGEPMAIETTHLSAKRFPALRRSLVKYTSLYTALAEVYDVHLAEAEETIETSLATPREAGLLGTDVGLPMLMLSRHSQDRTGQPVEWVRSVYRGDRYKFVARLKRPQD	not failed
MSTEDALCFTGEEYARHVREYWRGVAESDGFDSEDIRSPVVLTGLFHYDCQSGRRYPDPLLVKRYALLGLHRFNILQGTSFELDALQKFNKTMNLTSSYYITLLANEPGAIPLQKTFQVRVDERKYDTLDLTVAIARLKKDQNEAAETTKEPFVPHFCCSAVSDGVFQGPLPDWPSDDALRHDRNRFYELEKSEWQATDWISLYLELLILATDRGMFGVAQTGLPQVQILKVVIETEEENEKPLDKRLNARRAHVYITFTGLPKSPRLVEIGEHVERKAIIRRVIDDSGYLTLLGKFWSGKDTEQRSKTRQSEEKVESSQKRSRLC	failed
MSTIFDIRNLRLPQLSRASVVIGSLVVVLALAAGIVGVRLYQKLTNNTVVAYFTQANALYVGDKVQIMGLPVGSIDKIEPAGDKMKVTFHYQNKYKVPANASAVILNPTLVASRNIQLEPPYRGGPVLADNAVIPVERTQVPTEWDELRDSVSHIIDELGPTPEQPKGPFGEVIEAFADGLAGKGKQINTTLNSLSQALNALNEGRGDFFAVVRSLALFVNALHQDDQQFVALNKNLAEFTDRLTHSDADLSNAIQQFDSLLAVARPFFAKNREVLTHDVNNLATVTTTLLQPDPLDGLETVLHIFPTLAANINQLYHPTHGGVVSLSAFTNFANPMEFICSSIQAGSRLGYQESAELCAQYLAPVLDAIKFNYFPFGLNVASTASTLPKEIAYSEPRLQPPNGYKDTTVPGIWVPDTPLSHRNTQPGWVVAPGMQGVQVGPITQGLLTPESLAELMGGPDIAPPSSGLQTPPGPPNAYDEYPVLPPIGLQAPQVPIPPPPPGPDVIPGPVPPTPAPVGAPLPAEAGGGQ	failed
MSTKELLFSFHGRIDRKTYWIWNVIYYISIIGFGAGISKLFPAFSYLLLPIFLLVLLIPDLAITTKRWHDRDKSIYWLGLNIPLVIGRIATPMTSPMAQEPSTPQLFIASISLICGLWILIECGFLKGTSGPNKYGPEPQ	not failed
MSTLRATETHRASQSAWEVFLVFLRLGLTSFGGPVAHLGYFRDAFVTRRRWLTEHAYSDIVALCQFLPGPASSQVGMVVGLSRAGYPGALAAWVGFTLPSAIALILFALGLSHYGNLVPPSALHGLKVAAVAVVAQAVWGMARSLCPDAPRITLMILAAVAVTLIPSPWCQVGVMVVAGMVGAQRFRTAQVPPHEPLSIPVGHGAAIGFLLLFAGLLAGLPVVASLIPNHALALVDAFYRAGALVFGGGHVVLPLLQATVVPTGWVNNDTFLAGYGAAQAVPGPLFTFAAFLGAAGGPAPTGWIGGIVCLLAIFAPSFLLVFGALPFWERLRRHAGTRAALAGVNAAVVGLLLSALYQPVWTSAIHAPADFALALLALAALTVWRVPPWAVVTGCALAGWGMHVGGVA	failed
MSTMTATSGRAKRPQKPITLVGVDVYVITEDGIPKFDEYGPFKIEFISNRGTKVWPGYVSPDLMLVNWYRCRFTATRPVTDKDVDAFVGELGKKHLWSAVQKLWNYGDEAGFSKAY	failed
MSTPAPEQMLSAWQVGIAALLILVNGALSIGLGLGLERRLAWAAVRTVVQLLLIGFVLQWVFASAHWAVVLAVIALMTLIAGHATGSRGARDYAGLRLDGTLSVFGSTWLIGAIGLVAVLQARPWYTPQYAIPIMGMILGNTLTGVGLALERMTGELIATRDQVETLLALGGTRWEAARNAARAAVRAGMTPIINQMSVVGVVSLPGMMTGQVLAGQSPLEAVRYQIVIMFLLAASSGLGTVAAVLLAYRRLFSREHQLLSARIVQRAPGVH	failed
MSTTDNAFSATLEPIDTPKTTLKQRWWHIMDNWKVGIVPLPLFLLAGGLIALDCLGGKLPSDIVVMVATLAFFGFACGEFGKRLPVLGKLGAAAICATFIPSALVHYGLLPDVVIESTTKFYKSTNILYLYICCIIVGSIMSMNRTTLIQGFLKIFFPMLCGEVVGMLVGIGVGTLLGMEPFQVFFFIVLPIMAGGVGEGAIPLSMGYAALMHMEQGVALGRVLPMVMLGSLTAIVISGCLNQLGKRFPHLTGEGQLMPNRSHETRSLSESEGVSGKTDVGTLASGALLAVLLYMMGMLGHKLIGLPAPVGMLFLAVLLKLANVVSPRLQEGSQMVYKFFRTAVTYPILFAVGVAITPWQELVNAFTLTNLLVIVSTVSALVATGFLVGKKIGMHPIDVAIVSCCQSGQGGTGDVAILTAGNRMSLMPFAQIATRIGGAINVSLGLLFLSHYLA	failed
MSTTGKNTTAAATDTVTERPPVFSVDGLWKVFGPKAARVPADPDLTALSPAELRSRTGCTAAVADVSFDVRKGEVFVVMGLSGSGKSTLVRCLTRLIEPTAGSIVIDGEDVRAMDRSRLRELRRHRAAMVFQHFGLLPHRTVLDNVAYGLEVQGMGRAERRERAAAIVAKVGLEGLEQRRPGQLSGGQRQRVGLARALAVDPEVLLFDEPFSALDPLIRRDMQEEVVRLHREEGRTMVFITHDLQEALKLGDRIALMRDGRVVQLGTPEEIVGSPADDYVREFVRDVPREQVLTVRTAMRPAANADEAGTGPAIRPEATVSEAIEAVARAGSAARVMSDGRCLGVVDAADLLSVVAGTAAAGSRAAGAARVGAAATGERREPTDPRPATTEEPV	failed
MSTTLLRTIQLNQFSLLGTSLLRRRRSNNFSVRSCGSQTTTTHEAKQSSPTRVAPKNHKSNQLDEILRDYEAVIGIETHVQLSTLTKAFCSCSNNYGSYPNTSICPVCMGLPGALPVLNSKVVEFGVRLGLALNCDLSLKSKFDRKQYFYPDLPKGYQISQFDIPIASGGYVDVDIPLEFGGGHRRFGITRVHMEEDAGKLLHSDTGDYSQVDLNRAGVPLLEIVSEPDMRSGIEAAEYACEMQRIARYLGVSNGNMQEGSLRCDVNISIRPIGQAEFGTKVEIKNLNAFSAISRAIDFEISRQALLYNQGKADQIVTETRLWEEGAQKTVTMRKKEGLADYRYFPEPDLPEVILTQEYVDSIRASLPELPEAKRRRYEAMGLGMQDVLFLANDVSVAEYFDAVIGKGAEVKLAANWIMSDIAAYLKNEKLSINDIKLTPQELAELIAAIKDGTISGKIGKEILFELLAKGGTVKGMIKAKDLVQITDPAEIEKMVIQVVSENPKQLEQYRSGKTKLQGYFAGQVMKMSKGKANPGLLNKILLEKLNAKD	failed
MSTVAFHTLGCKVNHYETEAIWQLFKQGGYERTEYEKKADVYVINTCTVTNTGDKKSRQVIRRAVRQNPDAVICVTGCYAQTSPAEIMAIPGVDIVVGTQDREKMLGYIEEFRKERQPINAVRNIMKTRVYEELDVPYFTDRTRASLKIQEGCNNFCTFCIIPWARGLMRSRDGKEVIKQAQQLVDAGYKEIVLTGIHTGGYGEDIKDYNLAGLLRDMEAEVGGLKRLRISSIEASQISDEVIEVLDKSEVVVRHLHIPLQSGSNTVLKRMRRKYTMEFFQERLDRLKEALPGLAITSDVIVGFPGETEEEFMETYNFIKENRFSELHVFPYSKRTGTPAARMEDQVPEDVKNDRVHRLIELSNQLAKEYASQFEGEVLEIIPEEQFKEGDREGLYVGYTDNYLKIVFEGSEELIGKLVKVKITKAGYPYNEAQFVRVLEDDVKKESASALEHHHHHH	failed
MSTVRSIYYRGSLEHCNYTCSYCPFGRKSVSADTTEDQEALDRFISRIGGWKYGSLRILIIPYGEAMIHRYYREGIMRLAAMPHVIGVSCQTNLSFSVSRFLDEAEAEQADVSKFRFWASYHPEMVGVGEFASKVEMLRAAGIGVCAGAVGDPSAKEQIRKLRQLLDPSVYLFVNAMQGLRKPLSEEDIRFFGEIDNLFDYDRRNAKACLDGCVGGRETLFIDRKGDMYACPRSGIRMGNFYDDSTSDFQPFCLRKVCDCYIAFSNLCDTPLRRMMGDGALWRIPERKKVEAVFFDVDGTLTDAQGRIPDRTVSVLEYMAKRLPLYLSTALPVSHAKKRLGNVFGLFSGGVFADGGLLCYGETIECVPIANPMTAGFPGCRVTRYTREGKVFKYAVLAPNTREAVRWLTELDEEAYQLYQEGRLLTVVDSKASKKNGLITLCARLGISLREVLVVGNTMHDWPMMSVAGYSCAVMDAEEKLRKLSGYVLNPDSIPVFFDILEHHHHHH	failed
MSVCPTNFDEKVECPFVDRKEFTEAFEKAFNNIDQQNYSILVYYGVAGIGKTSLRKELPALLEKHNESDLHTRVIWTSIDFATEQYKQPYKFLEVLSSQLRQKYNVKFNSFDIALATYWKKINPHNPLVKENYSEGSIVHDILDVCDEFVPANLIPNVYNLTKNLPKHYQKWVLKREEDISGLQNLEPTEIYKRLPVYLAHDLADHLQNTSELAVIFIDTYEALWEKERDKGSFNSRDEWLRKLIEKIQKSCLWVICGKESLRWEEVDEDWKNYLDQRKIGKLPEKDALDLLKQCGITEEDIQNVLIESSEGVPYYLELSIDIYRKIKKKKQPTPENFAKVPEGIFCRFVKYLDREEKETLKVLSVPRYWNRELFKILVEKFNTGYPATSFSELHSFSFMDVDDKGKCSMHQLMRKSLKDYQDQDLKKEVHNFMLDFYSNQLKDIDIKEITPEHEIALTEAFYHAKEALEAEDLLKWFISVSDPFNRAAFWQLITPMYEEMLQILEAKHGPEHKDIVTTLNILDVLYYKMGEYKKALQFSERALAIGETILGVQHPDVATSLDNLAGLYESMGNYKQALQLSERALEIYEKVLGPQHRDVAITLDNLAGLYESMGEYEKALIFYQRTIEIKEKVLGPQHSNFATSLDNLAVLYRQMGEYEKALQLSQRALEIYEKVLGPQHPDIATTLNNIALLYDSMGDYQKTLPLYQRALEINEKVFGPQYLGIATTLNNLAGFYRRVGDYEKALSLSQRSLEIDEKVLGSQHPDVARTLNSLALIYENIGDYEKALAFYQRSLDIREKVLGPQHPDVGRTLNNLARLYEIMGDHEKALTLYQRTIEIKEKALGPQHPDVATILNNLAGLHYRIGEYKKALPLYQRALDIVEKKLGQNQPNSVVIKNNYNRLLSKMSENEKK	failed
MSVEIKRVDKHHCLDLVGIFIELERYYFGDKAASEQDLANYLSHQVFSEHSGVKVIAAVEHDKVLGFATYTIMFPAPKLSGQMYMKDLFVSSSARGKGIGLQLMKHLATIAITHNCQRLDWTAESTNPTAGKFYKSIGASLIREKEYYRFEGNGLNKLAKSL	not failed

Reference: a protein production outcome set (Wang et al. 2014)
